Experimental findings from PMC11316256 are described below.

Experiment [1] addresses CD177 (allele 263K431G) on 293 cells (human) (UniProt Q8N6Q3). Kind of experiment: bead-rosette formation; hIgG coupled to M-450 Epoxy Dynabeads, mixed with 293 cells at 3.5 beads per cell; beads on cells with two or more beads counted from one hundred random cells.
The target of experiment [2] is CD177 (allele 263K431R) on 293 cells (human) (UniProt Q8N6Q3).
In experiment [3] the target is CD177 (allele 263K431G) on 293 cells (human) (UniProt Q8N6Q3).
Chain of CD177 (allele 263K431G) on 293 cells (human) (Q8N6Q3 22-408): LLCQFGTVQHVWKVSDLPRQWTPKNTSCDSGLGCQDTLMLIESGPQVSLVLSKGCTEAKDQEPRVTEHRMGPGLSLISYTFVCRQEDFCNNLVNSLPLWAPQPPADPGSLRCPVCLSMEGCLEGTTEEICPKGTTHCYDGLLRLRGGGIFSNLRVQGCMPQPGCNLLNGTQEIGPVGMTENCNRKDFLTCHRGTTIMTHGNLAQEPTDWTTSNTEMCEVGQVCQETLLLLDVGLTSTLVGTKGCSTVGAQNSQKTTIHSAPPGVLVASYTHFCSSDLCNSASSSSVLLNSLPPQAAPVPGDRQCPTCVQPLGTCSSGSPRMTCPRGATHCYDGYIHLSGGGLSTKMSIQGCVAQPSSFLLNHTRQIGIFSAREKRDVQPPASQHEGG

Chain of CD177 (allele 263K431R) on 293 cells (human) (Q8N6Q3 22-408): as above

Human serum IgG (hIgG) (antibody) yielded a bound beads per 100 cells (beads per 100 cells) in experiment [1] of 123.

Substance Trastuzumab/Herceptin (antibody) registered an ADCC (% specific release) of NK-92 cells expressing the CD177-263K431R allele against SKOV-3 cells with trastuzumab 5 μg/ml, E:T 20:1; failed to mediate ADCC in experiment [2] of 0.11%. Moreover, in experiment [3], the ADCC (% specific release) of NK-92 cells expressing the CD177-263K431G allele against SKOV-3 cells with trastuzumab 5 μg/ml, E:T 20:1 was determined as 8.93%.
